Measured values published in patent US20220016257A1 (Daiichi Sankyo, published 2022).
Changes are numbered by the printed parent chain.

B1: humanized anti-CDH6 antibody H02L02 (antibody, human IgG1, kappa, V domains shown)
VH: EVQLVQSGAEVKKPGASVKVSCKASGYTFTRNFMHWVRQAPGQGLEWMGWIYPGDGETEYNQKFQGRVTITADRSTSTAYMELSSLRSEDTAVYFCARGVYGGFAGGYFDFWGQGTLVTVSS
VL: DIQMTQSPSSLSASVGDRVTITCKASQNIYKNLAWYQQKPGKAPKLLIYDANTLQTGVPSRFSGSGSGSDFTLTISSLQPEDFATYFCQQYYSGWAFGQGTKVEIKR
notes: hH02 heavy chain and hL02 light chain, human IgG1/kappa; also called H02L02 antibody; humanized hG019
B2: humanized anti-CDH6 antibody H01L02 (antibody, human IgG1, kappa)
heavy: not shown
light: DIQMTQSPSSLSASVGDRVTITCKASQNIYKNLAWYQQKPGKAPKLLIYDANTLQTGVPSRFSGSGSGSDFTLTISSLQPEDFATYFCQQYYSGWAFGQGTKVEIKRTVAAPSVFIFPPSDEQLKSGTASVVCLLNNFYPREAKVQWKVDNALQSGNSQESVTEQDSKDSTYSLSSTLTLSKADYEKHKVYACEVTHQGLSSPVTKSFNRGEC
notes: hH01 heavy chain and hL02 light chain, human IgG1/kappa; also called H01L02 antibody; humanized hG019
B3: humanized anti-CDH6 antibody H02L03 (antibody, human IgG1, kappa, V domains shown)
VH: B1 VH
VL: B1 VL with P40L, K42E, A43G, S69T, F87Y
notes: hH02 heavy chain and hL03 light chain, human IgG1/kappa; also called H02L03 antibody; humanized hG019
B4: humanized anti-CDH6 antibody H04L02 (antibody, human IgG1, kappa, V domains shown)
VH: B1 VH with E1Q, V37I, N61A, I70L, F95Y
VL: B1 VL
notes: hH04 heavy chain and hL02 light chain, human IgG1/kappa; also called H04L02 antibody; humanized hG019

Target: T1, Recombinant Human CDH6 Fc His chimera (R&D Systems, Inc.) (human, UniProt P55285 54-615)
T1 construct: Bought reagent; Captured on the chip by an anti-His antibody; also called the antigen; not shown: Fc portion of the bought chimera; His tag of the bought chimera
T1 sequence: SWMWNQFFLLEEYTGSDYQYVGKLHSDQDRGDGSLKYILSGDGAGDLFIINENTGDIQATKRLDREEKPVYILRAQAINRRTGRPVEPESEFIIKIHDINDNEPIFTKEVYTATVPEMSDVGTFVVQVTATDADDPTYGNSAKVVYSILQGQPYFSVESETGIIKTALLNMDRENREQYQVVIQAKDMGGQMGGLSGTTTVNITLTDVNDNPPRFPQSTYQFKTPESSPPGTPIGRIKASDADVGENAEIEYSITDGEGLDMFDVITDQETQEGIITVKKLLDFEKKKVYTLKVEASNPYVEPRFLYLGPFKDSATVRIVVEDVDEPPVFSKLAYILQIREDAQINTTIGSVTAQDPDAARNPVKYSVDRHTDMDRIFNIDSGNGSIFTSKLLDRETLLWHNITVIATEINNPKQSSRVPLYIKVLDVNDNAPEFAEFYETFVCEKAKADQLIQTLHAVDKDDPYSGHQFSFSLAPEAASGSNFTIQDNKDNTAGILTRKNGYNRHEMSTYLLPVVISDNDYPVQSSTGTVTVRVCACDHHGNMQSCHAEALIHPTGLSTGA
Experiment: SPR (Biacore T200), antigen captured by immobilized anti-His antibody, antibody as analyte, steady state affinity model
Method: The dissociation constant between the antibody and the antigen (Recombinant Human CDH6 Fc His chimera, R&D Systems, Inc.) was measured by using Biacore T200 (GE Healthcare Biosciences Corp.), according to a capture method, which comprises capturing the antigen as a ligand with the immobilized anti-His antibody and then measuring the dissociation constant using an antibody as an analyte. Approximately 1000 RU of the anti-histidine antibody (His capture kit, GE Healthcare Biosciences Corp.) was covalently bound to sensor chip CM5 (GE Healthcare Biosciences Corp.) by the amine coupling method. The antibody was also immobilized onto reference cells in the same manner as above. HBS-P+(10 mM HEPES pH 7.4, 0.15 M NaCl, 0.05% Surfactant P20) supplemented with 1 mM CaCl₂ was used as a running buffer. The antigen was added onto the anti-histidine antibody-immobilized chip for 60 seconds, and a dilution series solution (0.391 to 100 nM) of the antibody was then added at a flow rate of 30 μl/min for 300 seconds. Subsequently, the dissociation phase was monitored for 600 seconds. As a regeneration solution, a glycine solution (pH 1.5) supplemented with 5 M MgCl₂ was added twice at a flow rate of 10 μl/min for 30 seconds. A Steady State Affinity model in analysis software (BIAevaluation software, version 4.1) was used in data analysis, and the dissociation constant (KD) was calculated.

| Binder | Kd |
| --- | --- |
| B1 | 1.1 nM |
| B2 | 1.5 nM |
| B3 | 1.4 nM |
| B4 | 1.1 nM |

Target: T2, EC3-deleted human CDH6 (EC3 deletion mutant, on cells) (human, UniProt P55285 54-790)
T2 construct: Full-length human CDH6 lacking EC3; Cloned in p3xFLAG-CMV-9; also called EC3-deleted hCDH6
T2 sequence: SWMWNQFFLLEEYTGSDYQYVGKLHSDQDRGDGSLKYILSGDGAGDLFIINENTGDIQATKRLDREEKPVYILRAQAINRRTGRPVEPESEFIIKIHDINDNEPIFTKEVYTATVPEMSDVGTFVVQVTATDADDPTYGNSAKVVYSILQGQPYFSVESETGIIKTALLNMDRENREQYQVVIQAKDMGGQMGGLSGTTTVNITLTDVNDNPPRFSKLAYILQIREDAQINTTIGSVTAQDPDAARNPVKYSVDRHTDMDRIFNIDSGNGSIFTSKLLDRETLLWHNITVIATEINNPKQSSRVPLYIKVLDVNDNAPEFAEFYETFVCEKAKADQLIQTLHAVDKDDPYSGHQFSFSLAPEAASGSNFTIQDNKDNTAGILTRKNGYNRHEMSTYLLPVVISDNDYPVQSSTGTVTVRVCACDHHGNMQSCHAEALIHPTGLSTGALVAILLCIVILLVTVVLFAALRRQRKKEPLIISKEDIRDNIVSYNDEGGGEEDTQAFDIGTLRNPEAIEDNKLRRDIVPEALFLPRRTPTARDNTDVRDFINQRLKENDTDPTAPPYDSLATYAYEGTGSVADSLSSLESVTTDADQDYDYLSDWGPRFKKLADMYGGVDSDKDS
Experiment: flow cytometry, 293α cells transiently expressing EC3-deleted hCDH6 (open) against untransfected cells (shaded), APC anti-human IgG F(ab')2
Method: The cells were cultured overnight under conditions of 37° C. and 5% CO₂, and thereafter, a cell suspension was prepared. […] Thereafter, the cells were suspended by the addition of each of the 4 humanized hG019 antibodies (clone Nos: H01L02, H02L02, H02L03 and H04L02), which had been prepared in Example 5)-5-3, or the anti-CDH6 antibody NOV0712, which had been prepared in Reference Example 1, or human IgG1 (Calbiochem) as a negative control. The cells were left standing at 4° C. for 1 hour. The cells were washed twice with PBS supplemented with 5% FBS, and then suspended by the addition of APC-anti-human IgG goat F(ab′)2 (Jackson ImmunoResearch Laboratories, Inc.) that had been 500-fold diluted with PBS supplemented with 5% FBS. The cells were left standing at 4° C. for 1 hour. The cells were washed twice with PBS supplemented with 5% FBS, followed by detection using a flow cytometer (Canto II; BD Biosciences). The data was analyzed using FlowJo (TreeStar, Inc.). In the histograms of FIGS. 5-1 to 5-6, the abscissa depicts APC fluorescence intensity indicating the amount of the antibody bound, and the ordinate depicts cell count. […] Fluorescence intensity is enhanced when the antibody binds to full-length hCDH6 or each EC domain deletion mutant on the cell surface. The human IgG1 control binds to none of the transfected cells.

| Binder | binding result |
| --- | --- |
| B1 | no binding (tested: not given) |
| B2 | no binding (tested: not given) |
| B3 | no binding (tested: not given) |
| B4 | no binding (tested: not given) |
